Data from patent US20170355734A1 (INSERM INSTITUT NATIONAL DE LA SANT ET DE LA RECHERCHE M …, published 2017).
Like-named read-outs stand apart in the source and are kept apart here. Where no end group is shown, it is not given here. [ ]: non-standard residue; d: D form. The star is where a group is joined. Propanoyl(3-C8F17) = O=C(CCC(F)(F)C(F)(F)C(F)(F)C(F)(F)C(F)(F)C(F)(F)C(F)(F)C(F)(F)F)*; Phe(4-Br) = N[C@@H](Cc1ccc(Br)cc1)C(=O)O; fluorocarbon group = not defined here; Palmitoyl = CCCCCCCCCCCCCCCC(=O)*; acyl group = not defined here; Nle = CCCC[C@H](N)C(=O)O; Aib = CC(C)(N)C(=O)O

Assays:
[1] = target: T1, wild-type rat apelin receptor-EGFP (rat, UniProt Q9JHG3 1-377, EGFP is fused at the C-terminal (intracellular) end of the receptor. It is not included in the letters.); experiment: cell-based or functional assay
T1 sequence: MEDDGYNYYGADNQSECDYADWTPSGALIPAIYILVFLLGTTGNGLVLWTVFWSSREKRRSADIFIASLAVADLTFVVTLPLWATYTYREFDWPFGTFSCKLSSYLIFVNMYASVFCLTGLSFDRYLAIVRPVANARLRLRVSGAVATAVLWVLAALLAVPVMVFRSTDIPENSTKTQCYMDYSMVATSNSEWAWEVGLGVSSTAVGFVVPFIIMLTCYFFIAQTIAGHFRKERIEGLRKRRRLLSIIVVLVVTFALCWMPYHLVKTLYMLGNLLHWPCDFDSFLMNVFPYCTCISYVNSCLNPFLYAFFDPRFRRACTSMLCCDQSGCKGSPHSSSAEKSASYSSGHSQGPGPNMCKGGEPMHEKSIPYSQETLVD

[2] = target: T1, wild-type rat apelin receptor-EGFP; experiment: cell-based or functional assay; remark: listed apart in the source
[3] = target: T1, wild-type rat apelin receptor-EGFP; experiment: cell-based or functional assay; remark: listed apart in the source
[4] = target: T1, wild-type rat apelin receptor-EGFP; experiment: cell-based or functional assay; remark: listed apart in the source
[5] = target: T1, wild-type rat apelin receptor-EGFP; experiment: competitive radioligand binding vs [125I]-pE13F, membranes of CHO cells expressing rat apelin receptor-EGFP
[6] = target: T1, wild-type rat apelin receptor-EGFP; experiment: as above; remark: listed apart in the source
[7] = target: T1, wild-type rat apelin receptor-EGFP; experiment: cell-based or functional assay; remark: listed apart in the source
[8] = target: T1, wild-type rat apelin receptor-EGFP; experiment: competitive radioligand binding vs [125I]-pE13F, rat apelin receptor-EGFP in CHO membranes
[9] = target: T1, wild-type rat apelin receptor-EGFP; experiment: radioligand binding on membrane preparation from CHO cells stably expressing the rat apelin receptor-EGFP
[10] = target: T1, wild-type rat apelin receptor-EGFP; experiment: competitive radioligand binding vs [125I]-pE13F, membranes of CHO cells expressing rat apelin receptor-EGFP
Protocol: (§1) Crude membrane preparation from CHO stably expressing the wild-type rat apelin receptor-EGFP, were prepared as previously described (39). […] The reaction was stopped by adding ice-cold binding buffer and filtered through glass microfiber filters (Whatman GF/C filters). Radioactivity was counted in Wizard 1470 Wallac gamma counter (Perkin Elmer, Turku, Finland).

[11] = target: T1, wild-type rat apelin receptor-EGFP; experiment: cell-based or functional assay; remark: listed apart in the source
[12] = target: T1, wild-type rat apelin receptor-EGFP; experiment: competitive radioligand binding vs [125I]-pE13F, membranes of CHO cells expressing rat apelin receptor-EGFP; remark: listed apart in the source
Protocol: as §1

[13] = target: T1, wild-type rat apelin receptor-EGFP; experiment: cell-based or functional assay; remark: listed apart in the source
[14] = target: T1, wild-type rat apelin receptor-EGFP; experiment: competitive radioligand binding vs [125I]-pE13F, membranes of CHO cells expressing rat apelin receptor-EGFP; remark: listed apart in the source
Protocol: as §1

[15] = target: T1, wild-type rat apelin receptor-EGFP; experiment: cell-based or functional assay; remark: listed apart in the source
[16] = target: T1, wild-type rat apelin receptor-EGFP; experiment: cell-based or functional assay; remark: listed apart in the source
[17] = target: T1, wild-type rat apelin receptor-EGFP; experiment: D-scanning; competitive radioligand binding vs [125I]-pE13F, rat apelin receptor-EGFP in CHO membranes

Sequence of AT1 receptor (P30556 whole entry): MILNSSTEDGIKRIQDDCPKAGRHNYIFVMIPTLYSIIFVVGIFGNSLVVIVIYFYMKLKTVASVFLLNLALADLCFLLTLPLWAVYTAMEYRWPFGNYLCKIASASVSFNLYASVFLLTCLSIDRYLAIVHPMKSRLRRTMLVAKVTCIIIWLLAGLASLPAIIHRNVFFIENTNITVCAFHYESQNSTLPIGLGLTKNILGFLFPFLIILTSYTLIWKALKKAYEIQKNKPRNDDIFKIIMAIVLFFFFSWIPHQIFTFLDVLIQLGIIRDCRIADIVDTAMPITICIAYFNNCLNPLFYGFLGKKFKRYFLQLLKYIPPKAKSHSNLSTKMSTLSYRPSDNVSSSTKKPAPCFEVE

pE13F (pyroglutamyl form of apelin 13) (peptide)
inhibition of forskolin-induced cAMP production IC50 [1]: 1 nM

pE13(4Br-Phe^13) (peptide)
inhibition of forskolin-induced cAMP production IC50 [1]: 0.1 nM

B1: P26 (peptide)
peptide: RPRLSXKAPXPF
HELM: PEPTIDE1{[ac].R.P.R.[dL].S.[Aib].K.[dA].P.[Nle].P.[O=C(O)[C@H](Cc1ccc(Br)cc1)N[*:1]]}$$$$V2.0
SMILES: CCCC[C@H](NC(=O)[C@@H]1CCCN1C(=O)[C@@H](C)NC(=O)[C@H](CCCCN)NC(=O)C(C)(C)NC(=O)[C@H](CO)NC(=O)[C@@H](CC(C)C)NC(=O)[C@H](CCCNC(=N)N)NC(=O)[C@@H]1CCCN1C(=O)[C@H](CCCNC(=N)N)NC(C)=O)C(=O)N1CCC[C@H]1C(=O)N[C@@H](Cc1ccc(Br)cc1)C(=O)O
ERK1/2 phosphorylation EC50 [2]: 71.3 nM | ERK1/2 phosphorylation EC50, fold against K17F [2]: 18 fold | ERK1/2 phosphorylation EC50 [3]: 72.1 nM | Internalization EC50 [3]: 2.1 nM | cAMP production IC50 [3]: 2.22 nM | inhibition of forskolin-induced cAMP production IC50 [3]: 4.4 nM | Inhibition of FSK-induced cAMP production IC50 [4]: 2.22 nM | Internalization EC50 [4]: 2.11 nM | Ki [5]: 2.11 nM

Ac-KFRRQRPR[dL]S[Aib]K[dA]P[Nle]P[Phe(4-Br)] (not fully specified (residue 3)) [P96]
IC50 [6]: 0.11 nM | cAMP production IC50 [7]: 0.45 nM

KKFRRQRPRLSHKGPMPF (acyl group RC(O)- on the εNH2 of the added N-terminal linker L-lysine) [JFM V-0210/2]
IC50 cAMP inhibition [3]: 1.4 nM | Ki [6]: 1.33 nM

XRPRLSXKGPMPF (pGlu at 1; Aib (α-aminoisobutyric acid) at 7) [pE13F(Aib^7)]
Ki [8]: 2.6 nM | inhibition of forskolin-induced cAMP production IC50 [3]: 1.2 nM

{Propanoyl(3-C8F17)}-KFRRQRPRLSHKGPMPF [JFM V-0196B]
IC50 cAMP inhibition [3]: 3.1 nM | cAMP production IC50 [3]: 3.1 nM | ERK1/2 phosphorylation EC50 [4]: 0.89 nM | Inhibition of FSK-induced cAMP production IC50 [4]: 3.13 nM | Internalization EC50 [4]: 0.41 nM | Ki [5]: 0.08 nM | Ki [6]: 0.21 nM

{fluorocarbon group}-KF[dR]R[dQ]RPR[dL]S[Aib]K[dA]P[Nle]P[Phe(4-Br)] (reading uncertain; also: fluorocarbon group on the NH2α of Lys 1) [FLUORO-P92]
Ki [9]: 0.31 nM

Palmitoyl-KFRRQRPRLSHKGPMPF [JFM V-0196A]
IC50 cAMP inhibition [3]: 3.9 nM | cAMP production IC50 [3]: 3.9 nM | Ki [6]: 0.76 nM

K(Palmitoyl)FRRQRPRLSHKGPMPF [JFM V-0220A]
IC50 cAMP inhibition [3]: 2 nM | Ki [6]: 1.43 nM

K(heptadecafluoroundecanoyl)FRRQRPRLSHKGPMPF [JFM V-0220B]
IC50 cAMP inhibition [3]: 1 nM | Ki [6]: 0.16 nM

H-KFRRQRPRLSHKGPMPF-OH [K17F (apelin-17)]
Ki [10]: 0.26 nM | cAMP production IC50 [11]: 0.3 nM | IC50 [12]: 0.29 nM | Ki [12]: 0.049 nM | ERK1/2 phosphorylation EC50 [13]: 4.08 nM | Inhibition of FSK-induced cAMP production IC50 [13]: 0.3 nM | Internalization EC50 [13]: 0.26 nM | Ki [14]: 0.06 nM | IC50 cAMP inhibition [15]: 0.09 nM | ERK1/2 phosphorylation EC50 [16]: 4.08 nM | Internalization EC50 [16]: 0.26 nM | cAMP production IC50 [16]: 0.3 nM

{acyl group}-KF[dR]R[dQ]RPR[dL]S[Aib]K[dA]P[Nle]P[Phe(4-Br)] (reading uncertain; also: acyl group on the NH2α of Lys 1) [LIPO-P92]
Ki [9]: 0.25 nM | factor of decreased affinity as compared to P92 [9]: 2 to 3 fold

XRPRLSHKGPXPF (pGlu at 1; Nle (norleucine) at 11) [pE13F(Nle^11)]
inhibition of forskolin-induced cAMP production IC50 [3]: 1 nM

Ac-KFRR[dQ]RPR[dL]S[Aib]K[dA]P[Nle]P[Phe(4-Br)] [P95]
factor of improved affinity as compared to K17F [8]: 10 fold | IC50 [6]: 0.03 nM | cAMP production IC50 [7]: 0.34 nM

XRPRLSHKAPMPF (pGlu at 1; D-Ala at 9) [pE13F(D-Ala^9)]
Ki [17]: 4.3 nM | inhibition of forskolin-induced cAMP production IC50 [3]: 43 nM

Ac-RPRLSHKGPMPF [Ac-R12F]
Ki [8]: 1.4 nM | inhibition of forskolin-induced cAMP production IC50 [3]: 2.4 nM

B2: P92 (peptide)
peptide: KFRRQRPRLSXKAPXPF
HELM: PEPTIDE1{[ac].K.F.[dR].R.[dQ].R.P.R.[dL].S.[Aib].K.[dA].P.[Nle].P.[O=C(O)[C@H](Cc1ccc(Br)cc1)N[*:1]]}$$$$V2.0
SMILES: CCCC[C@H](NC(=O)[C@@H]1CCCN1C(=O)[C@@H](C)NC(=O)[C@H](CCCCN)NC(=O)C(C)(C)NC(=O)[C@H](CO)NC(=O)[C@@H](CC(C)C)NC(=O)[C@H](CCCNC(=N)N)NC(=O)[C@@H]1CCCN1C(=O)[C@H](CCCNC(=N)N)NC(=O)[C@@H](CCC(N)=O)NC(=O)[C@H](CCCNC(=N)N)NC(=O)[C@@H](CCCNC(=N)N)NC(=O)[C@H](Cc1ccccc1)NC(=O)[C@H](CCCCN)NC(C)=O)C(=O)N1CCC[C@H]1C(=O)N[C@@H](Cc1ccc(Br)cc1)C(=O)O
ERK1/2 phosphorylation EC50 [3]: 3.42 nM | Internalization EC50 [3]: 0.38 nM | cAMP production IC50 [3]: 0.56 nM | inhibition of forskolin-induced cAMP production IC50 [3]: 0.2 nM | Inhibition of FSK-induced cAMP production IC50 [4]: 0.56 nM | Ki [5]: 0.09 nM | selectivity factor towards the AT1 receptor with respect to the apelin receptor (AT1 receptor): 100 fold | IC50 [6]: 0.21 nM | Ki [6]: 0.2 nM | cAMP production IC50 [7]: 0.62 nM

B3: JFM V-0210/1 (peptide)
peptide: KKFRRQRPRLSHKGPMPF
modifications: fluorocarbon (perfluoroalkyl) group on the εNH2 of the added N-terminal linker L-lysine
IC50 cAMP inhibition [3]: 3.8 nM | Ki [6]: 0.18 nM
